Reference: publication PMC3115021, “Dynamics of Cdk1 Substrate Specificity during the Cell Cycle” (Molecular Cell, 2011)

B1: SLI15: purified yeast protein tested as Cdk1 substrate (protein, UniProt P38283 1-698, looked up)
Inner centromere protein SLI15: MDWAIKAARKKTQRKPGSTRSIIETLDDLNNLTTDAHSEINQRLYESSEWLRNNVYMNTLKYEDKKMEESLISPENTHNKMDVEFPKMKGEYELSNSQNDAAKDVTKTPRNGLHNDKSITPKSLRRKEVTEGMNRFSIHDTNKSPVEPLNSVKVDANESEKSSPWSPYKVEKVLRESSKTSESPINTKRFDNQTWAAKEEMENEPILQALKKAESVKVKPPPNSGIARSQRRSNMFVPLPNKDPLIIQHIPPTKSSGSIPKVRTVKESPIAFKKKSTINSPAIRAVENSDTAGSTKASSVFDRLSSIPTKSFENKISRGNVGHKYSSSSIDLTGSPMKKVSQKFKSINSTDTDMQEALRDIFSVKNKITKNNSPKGKNSRKSSIPRFDKTSLKLTTHKKLAIIAEQKKKSKHSSDVHKTGSRPHSISPTKISVDSSSPSKEVKNYYQSPVRGYLRPTKASISPNKNKNLTTSQTPHRLKIKEKTLRKLSPNIADISKPESRKSKNYRLTNLQLLPPAEAERDDLKKKFDKRLSGIMRSQQEHHRRKQEKQKRMSHLEQDLKKQTSFSNDYKDIRLKESLAPFDNHVRDTINKNTAFSTDNILATINTVDHREIIGNVTPKIASVNDSLPEINTDSEDEASVTLAAWAKSPYLQEQLIRQQDINPQTIFGPIPPLHTDEIFPNPRLNRLKPRQIVPKRS
B2: SWI5: purified yeast protein tested as Cdk1 substrate (protein, UniProt P08153 1-709, looked up)
Transcriptional factor SWI5: MDTSNSWFDASKVQSLNFDLQTNSYYSNARGSDPSSYAIEGEYKTLATDDLGNILNLNYGETNEVIMNEINDLNLPLGPLSDEKSVKVSTFSELIGNDWQSMNFDLENNSREVTLNATSLLNENRLNQDSGMTVYQKTMSDKPHDEKKISMADNLLSTINKSEINKGFDRNLGELLLQQQQELREQLRAQQEANKKLELELKQTQYKQQQLQATLENSDGPQFLSPKRKISPASENVEDVYANSLSPMISPPMSNTSFTGSPSRRNNRQKYCLQRKNSSGTVGPLCFQELNEGFNDSLISPKKIRSNPNENLSSKTKFITPFTPKSRVSSATSNSANITPNNLRLDFKINVEDQESEYSEKPLGLGIELLGKPGPSPTKSVSLKSASVDIMPTIPGSVNNTPSVNKVSLSSSYIDQYTPRGKQLHFSSISENALGINAATPHLKPPSQQARHREGVFNDLDPNVLTKNTDNEGDDNEENEPESRFVISETPSPVLKSQSKYEGRSPQFGTHIKEINTYTTNSPSKITRKLTTLPRGSIDKYVKEMPDKTFECLFPGCTKTFKRRYNIRSHIQTHLEDRPYSCDHPGCDKAFVRNHDLIRHKKSHQEKAYACPCGKKFNREDALVVHRSRMICSGGKKYENVVIKRSPRKRGRPRKDGTSSVSSSPIKENINKDHNGQLMFKLEDQLRRERSYDGNGTGIMVSPMKTNQR
B3: PXL1: purified yeast protein tested as Cdk1 substrate (protein, UniProt P36166 1-706, looked up)
Paxillin-like protein 1: MYNSIYGSPFPKINPKVRYKTALERAGFDTKPRNPFSSQRNASTGSLQASVKSPPITRQRNVSAAPSVPVTMKSAYTASSKSAYSSVKGESDIYPPPVLENSERRSVTPPKNSNFTSSRPSDISRSISRPSERASQEDPFRFERDLDRQAEQYAASRHTCKSPANKEFQAADNFPFNFEQEDAGNTEREQDLSPIERSFMMLTQNDTASVVNSMNQTDNRGVLDQKLGKEQQKEESSIEYESEGQQEDENDIESLNFEPDPKLQMNLENEPLQDDFPEAKQEEKNTEPKIPEINVTRESNTPSLTMNALDSKIYPDDNFSGLESSKEQKSPGVSSSSTKVEDLSLDGLNEKRLSITSSENVETPYTATNLQVEQLIAQLDDVSLSRNAKLDMNGNCLNAVDRKASRFKKSSAYLSGYPSMDIPVTQQTSIVQNSNTNLSRQTILVDKGDVDEDAPSESTTNGGTPIFYKFKQSNVEYSNNEGMGSQETFRTKLPTIEALQLQHKRNITDLREEIDNSKSNDSHVLPNGGTTRYSSDADYKETEPIEFKYPPGEGPCRACGLEVTGKRMFSKKENELSGQWHRECFKCIECGIKFNKHVPCYILGDEPYCQKHYHEENHSICKVCSNFIEGECLENDKVERFHVDCLNCFLCKTAITNDYYIFNGEIPLCGNHDMEALLKEGIDNATSSNDKNNTLSKRRTRLINFN

target: T1, Clb5-Cdk1 (Saccharomyces cerevisiae, UniProt P00546+P30283); test: Quantitative phosphorylation assay of T33-Sic1ΔC constructs and recombinant substrates; format: biochemical; conditions: Table S2; purified protein substrate; relative values, not divided by [S]
T1 construct: We purified the four cyclin-Cdk1 complexes from yeast; made in house; host or cells: S. cerevisiae strain DOM0076 (gal-CLB5-TAP, sic1 deleted); Cks1 from bacteria
T1 sequence (P00546 2-298 limits assumed): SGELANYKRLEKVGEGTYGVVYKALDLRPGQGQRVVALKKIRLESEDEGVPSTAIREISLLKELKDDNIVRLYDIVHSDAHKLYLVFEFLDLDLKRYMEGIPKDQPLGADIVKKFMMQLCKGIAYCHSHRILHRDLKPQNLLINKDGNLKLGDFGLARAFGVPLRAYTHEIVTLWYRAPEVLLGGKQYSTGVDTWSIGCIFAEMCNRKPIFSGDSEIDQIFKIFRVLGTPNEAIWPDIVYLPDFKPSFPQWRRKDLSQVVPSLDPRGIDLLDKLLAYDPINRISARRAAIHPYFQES
T1 sequence (P30283 whole entry partner): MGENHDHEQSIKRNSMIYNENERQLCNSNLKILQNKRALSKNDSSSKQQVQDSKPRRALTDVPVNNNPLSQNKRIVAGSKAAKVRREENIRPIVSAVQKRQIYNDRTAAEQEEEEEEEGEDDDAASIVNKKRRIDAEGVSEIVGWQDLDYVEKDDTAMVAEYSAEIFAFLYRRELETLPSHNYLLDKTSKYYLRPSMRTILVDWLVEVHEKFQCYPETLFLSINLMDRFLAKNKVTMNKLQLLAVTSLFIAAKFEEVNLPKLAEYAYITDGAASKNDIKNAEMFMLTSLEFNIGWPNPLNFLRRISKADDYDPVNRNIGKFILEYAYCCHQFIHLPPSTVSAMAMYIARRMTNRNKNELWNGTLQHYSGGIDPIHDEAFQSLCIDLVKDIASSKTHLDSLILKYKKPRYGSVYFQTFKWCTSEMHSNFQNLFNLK
T1 sequence (P20486 whole entry partner): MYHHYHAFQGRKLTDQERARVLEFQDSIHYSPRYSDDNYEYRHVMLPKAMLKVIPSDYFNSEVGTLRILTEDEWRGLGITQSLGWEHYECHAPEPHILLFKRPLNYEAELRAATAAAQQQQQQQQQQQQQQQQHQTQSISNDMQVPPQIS

Row | Molecule | kcat/KM, Clb5 [relative units]
1 | B1 | 0.025
2 | B2 | 0.475
3 | B3 | 0.031

target: T2, Clb3-Cdk1 (Saccharomyces cerevisiae, UniProt P00546+P24870); test: as above; format: biochemical; conditions: Table S2; purified protein substrate; relative values, not divided by [S]
T2 construct: We purified the four cyclin-Cdk1 complexes from yeast; made in house; host or cells: S. cerevisiae strain DOM0957 (gal-CLB3-TAP, sic1 deleted); Cks1 from bacteria
T2 sequence (P00546 2-298 limits assumed): as the sequence (P00546 2-298 limits assumed) above
T2 sequence (P24870 whole entry partner): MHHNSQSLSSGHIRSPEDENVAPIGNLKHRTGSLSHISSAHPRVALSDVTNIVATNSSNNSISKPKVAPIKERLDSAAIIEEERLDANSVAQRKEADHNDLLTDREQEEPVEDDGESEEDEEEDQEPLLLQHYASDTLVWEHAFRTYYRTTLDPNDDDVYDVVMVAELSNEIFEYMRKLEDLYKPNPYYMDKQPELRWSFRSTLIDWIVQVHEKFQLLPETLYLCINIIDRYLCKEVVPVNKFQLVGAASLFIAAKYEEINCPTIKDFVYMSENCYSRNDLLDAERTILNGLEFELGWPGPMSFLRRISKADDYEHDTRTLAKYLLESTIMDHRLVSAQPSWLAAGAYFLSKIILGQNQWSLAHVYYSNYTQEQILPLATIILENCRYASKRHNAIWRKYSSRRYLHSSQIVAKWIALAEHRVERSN
T2 sequence (P20486 whole entry partner): as the sequence (P20486 whole entry partner) above

Row | Molecule | kcat/KM, Clb3 [relative units]
4 | B1 | 0.141
5 | B2 | 1.686
6 | B3 | 0.139

target: T3, Clb2-Cdk1 (Saccharomyces cerevisiae, UniProt P00546+P24869); test: as above; format: biochemical; conditions: Table S2; purified protein substrate; relative values, not divided by [S]
T3 construct: We purified the four cyclin-Cdk1 complexes from yeast; made in house; host or cells: S. cerevisiae strain DOM0077 (gal-CLB2-TAP, sic1 deleted); Cks1 from bacteria
T3 sequence (P00546 2-298 limits assumed): as the sequence (P00546 2-298 limits assumed) above
T3 sequence (P24869 2-491 partner limits assumed): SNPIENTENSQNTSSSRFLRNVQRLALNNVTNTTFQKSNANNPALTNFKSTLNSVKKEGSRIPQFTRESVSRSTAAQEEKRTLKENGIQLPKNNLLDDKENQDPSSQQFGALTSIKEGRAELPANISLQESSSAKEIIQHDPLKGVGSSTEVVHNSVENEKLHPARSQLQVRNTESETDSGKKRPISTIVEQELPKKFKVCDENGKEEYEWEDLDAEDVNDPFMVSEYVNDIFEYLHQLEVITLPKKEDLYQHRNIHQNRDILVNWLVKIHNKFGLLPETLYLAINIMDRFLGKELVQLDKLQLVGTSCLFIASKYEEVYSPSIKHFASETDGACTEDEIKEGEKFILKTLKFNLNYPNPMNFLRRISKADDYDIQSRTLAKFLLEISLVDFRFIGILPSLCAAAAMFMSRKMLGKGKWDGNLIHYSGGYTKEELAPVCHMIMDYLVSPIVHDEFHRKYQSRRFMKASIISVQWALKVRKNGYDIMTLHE
T3 sequence (P20486 whole entry partner): as the sequence (P20486 whole entry partner) above

Row | Molecule | kcat/KM, Clb2 [relative units]
7 | B1 | 0.109
8 | B2 | 2.961
9 | B3 | 0.571

target: T4, Cln2-Cdk1 (Saccharomyces cerevisiae, UniProt P00546+P20438); test: as above; format: biochemical; conditions: Table S2; purified protein substrate; relative values, not divided by [S]
T4 construct: We purified the four cyclin-Cdk1 complexes from yeast; made in house; host or cells: S. cerevisiae strain DMY305 (galactose-induced); Cks1 from bacteria
T4 sequence (P00546 2-298 limits assumed): as the sequence (P00546 2-298 limits assumed) above
T4 sequence (P20438 whole entry partner): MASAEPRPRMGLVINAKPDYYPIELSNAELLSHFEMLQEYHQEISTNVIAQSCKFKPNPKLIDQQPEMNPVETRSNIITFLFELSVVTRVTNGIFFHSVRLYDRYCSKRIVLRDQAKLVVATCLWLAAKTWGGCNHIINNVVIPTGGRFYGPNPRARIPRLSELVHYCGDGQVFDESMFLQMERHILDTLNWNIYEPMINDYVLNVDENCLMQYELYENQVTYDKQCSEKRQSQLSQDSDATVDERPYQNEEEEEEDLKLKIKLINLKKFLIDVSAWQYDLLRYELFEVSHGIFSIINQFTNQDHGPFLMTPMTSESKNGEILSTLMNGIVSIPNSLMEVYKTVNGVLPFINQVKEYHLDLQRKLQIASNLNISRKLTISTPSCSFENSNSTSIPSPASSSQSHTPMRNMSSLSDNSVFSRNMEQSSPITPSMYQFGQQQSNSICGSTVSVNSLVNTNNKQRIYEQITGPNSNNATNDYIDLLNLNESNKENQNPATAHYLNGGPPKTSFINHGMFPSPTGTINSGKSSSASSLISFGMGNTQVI
T4 sequence (P20486 whole entry partner): as the sequence (P20486 whole entry partner) above

Row | Molecule | kcat/KM, Cln2 [relative units]
10 | B1 | 0.422
11 | B2 | 0.178
12 | B3 | 0.031

target: T5, Clb2hpm-Cdk1 (Saccharomyces cerevisiae, UniProt P00546); test: as above; format: biochemical; conditions: Table S2; purified protein substrate; relative values, not divided by [S]
T5 construct: made in house; host or cells: S. cerevisiae strain DOM0964 (gal-CLB2hpm-TAP, sic1 deleted); Cks1 from bacteria
T5 sequence (P00546 2-298 limits assumed): as the sequence (P00546 2-298 limits assumed) above
Description: (§1) For the quantitative phosphorylation assays of T33-Sic1ΔC constructs and recombinant substrates, substrate concentrations were kept in the range of 0.5–2 μM (in the linear [S] versus v0 range, several-fold below the estimated KM value), and initial velocity conditions were defined as an initial substrate turnover of up to 10% of the total turnover. For the steady-state peptide kinetics of the Histone peptide PKTPKKAKKL, a similar assay composition was used as for protein substrates, and phosphocellulose paper was used for the quantification of the phosphorylated substrate.
(§2) Supplemental Experimental Procedures
(§3) Plasmid constructs and yeast strains
(§4) For tandem affinity purification (TAP) of cyclin-Cdk1 complexes, the cyclin genes were cloned into the 2 micron vector pRSAB1234 containing a GAL1 promoter and the C-terminal TAP-tag. To purify different 6His-T33-Sic1ΔC forms for kinase assays, the C-terminally truncated fragment of Sic1 (with a stop codon inserted after amino acid 215) was cloned into the NheI/BamHI site of the bacterial expression vector pET28a (Invitrogen). Mutagenesis of cyclins or substrates was performed using single-stranded pRSAB1234 or pET28a vector constructs as templates. The triple mutants in the hydrophobic patch (hpm) of Clb5 and Clb2 were described previously (Loog and Morgan, 2005), and the hpm of Clb3 (Phe-201, Leu-205 and Trp-208 mutated to alanines) was designed according to sequence homology with other B-type cyclins. In T33-Sic1ΔC constructs, the other Cdk sites bearing the consensus motif S/T-P were mutated to Ala-Ala in order to prevent any possible (pseudo)substrate competition. The other Cdk substrates were cloned as full-length forms into bacterial expression vectors pET28a or pGEX-4T-1. Cdh1 was purified using the baculovirus system and was a kind gift from Monica Rodrigo-Brenni (UCSF). […]
The […]
(§5) pRSAB1234 analogously to the cyclin-Cdk1 complexes. For C-terminal tagging of cyclin genes in their chromosomal loci, the Pringle method was applied (Longtine et al., 1998). Lists of plasmid […]
(§6) The TAP method was applied for purification of cyclin-Cdk1 complexes and Swe1 as described previously for Clb5-TAP-Cdk1 and Clb2-TAP-Cdk1 (Puig et al., 2001; Ubersax et al., 2003). […]
(§7) tagged recombinant T33-Sic1ΔC constructs and substrates were cloned into the pET28a vector and purified by standard cobalt affinity chromatography and elution with 200 mM imidazole. 6His-Fin1 was purified as described previously (Woodbury and Morgan, 2007). Substrates cloned into the pGEX-4T-1 were purified on glutathione agarose columns using 5 mM reduced glutathione for elution. Cks1 was purified as described previously (Reynard et al., 2000). The optimal working concentration for purified Cks1 was taken as 500 nM based on optimization performed for cyclin-Cdk1 preparations and T33-Sic1ΔC as a substrate.
(§8) For the quantitative phosphorylation assays of T33-Sic1ΔC constructs and recombinant substrates, substrate concentrations were kept in the range of 0.5-2 μM (in the linear [S] vs v0 range, several-fold below the estimated KM value), and the initial velocity conditions were defined as an initial substrate turnover ranging up to 10% of the total turnover. The latter was estimated by a long-term incubation with excess amounts of cyclin-Cdk1 and 32P-γ-ATP in the standard reaction mixture given below. About 1-10 nM of purified kinase complex was used, reaction aliquots were taken at two or more time points, and the reaction was stopped by SDS-PAGE sample buffer. The relative kcat/KM values for the substrates were calculated as the ratio of v0/[S], which was determined from at least two independent experiments. The basal composition of the assay mixture contained 50 mM Hepes, pH 7.4, 100 mM NaCl, 0.1% NP-40, 20 mM imidazole, 0.1 mg/ml 2HA peptide, 2% glycerol, 2 mM EGTA, 0.2 mg/ml BSA, […], and 500 μM ATP (with added 32P-γ-ATP (Perkin Elmer)).
(§9) About 1-10 nM of purified kinase complex was used, reaction aliquots were taken at two or more […]

Row | Molecule | kcat/KM, Clb2hpm [relative units]
13 | B1 | 0.060
14 | B2 | 1.387
15 | B3 | 0.244

target: T6, Clb3hpm-Cdk1 (Saccharomyces cerevisiae, UniProt P00546+P24870); test: as above; format: biochemical; conditions: Table S2; purified protein substrate; relative values, not divided by [S]
T6 construct: made in house; host or cells: S. cerevisiae strain MK0168 (gal-CLB3hpm-TAP, sic1 deleted); Cks1 from bacteria
Description: as §1, §2, §3, §4
The […]
as §5, §6, §7, §8, §9

Row | Molecule | kcat/KM, Clb3hpm [relative units]
16 | B1 | 0.032
17 | B2 | 0.207
18 | B3 | 0.033

target: T7, Clb5hpm-Cdk1 (Saccharomyces cerevisiae, UniProt P00546); test: as above; format: biochemical; conditions: Table S2; purified protein substrate; relative values, not divided by [S]
T7 construct: made in house; host or cells: S. cerevisiae strain DOM0963 (gal-CLB5hpm-TAP, sic1 deleted); Cks1 from bacteria
T7 sequence (P00546 2-298 limits assumed): as above
Description: as §1, §2, §3, §4
The […]
as §5, §6, §7, §8, §9

Row | Molecule | kcat/KM, Clb5hpm [relative units]
19 | B1 | 0.004
20 | B2 | 0.172
21 | B3 | 0.015
